Source: patent US20230265183A1 (MABWELL SHANGHAI BIOSCIENCE, published 2023)
Blank lines part the entries; values can stand above or below the binder they belong to.

Key:
[1] = target: T1, His-tagged human NECTIN4 (human, UniProt Q96NY8 32-349); assay: SPR (BIAcore S200), antigen on CAP chip, antibody as analyte, 1:1 fit
T1 construct: Antigen of the BIAcore assay; also called antigen; recombinant NECTIN4 protein; not shown: His tag
T1 sequence: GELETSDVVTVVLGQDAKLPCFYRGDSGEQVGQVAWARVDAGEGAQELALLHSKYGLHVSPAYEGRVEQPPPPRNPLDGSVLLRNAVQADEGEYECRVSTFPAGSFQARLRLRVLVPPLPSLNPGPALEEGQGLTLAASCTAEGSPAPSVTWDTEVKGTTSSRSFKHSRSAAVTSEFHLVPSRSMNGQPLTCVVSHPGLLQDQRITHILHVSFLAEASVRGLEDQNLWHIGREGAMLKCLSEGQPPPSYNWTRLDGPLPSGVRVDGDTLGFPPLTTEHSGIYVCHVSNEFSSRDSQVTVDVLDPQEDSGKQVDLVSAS
Protocol: Interactions between the antibodies and the antigen were measured using a BIAcore instrument S200 from GE. Referring to the instructions provided in Biotin Capture Kit from GE Healthcare, the analytical channel and the control sample channel on CAP sensor chip were first coupled with antigen i.e. His-tagged human NECTIN4, then samples containing antibodies (diluted 3-fold from an initial concentration of 20 nM respectively and solutions of each antibody of 8 concentrations were obtained totally, and the concentration 0.741 nM was set to be repeated) were allowed to flow through both the analytical channel and the sample channel, and the photoreactions upon antibody-antigen binding were measured. Association constant Kon and dissociation constant Koff and affinity constant KD of each antibody were finally obtained by instrument software fitting (1:1 binding mode) analysis.

[2] = target: T2, human Nectin-4 (human, UniProt Q96NY8 32-510); assay: FACS on CHO-huNectin4 S8 cells
T2 construct: whole, on cells; Cell-surface target of the FACS, endocytosis and proliferation assays (CHO-huNectin4 S8 cells, BT474 cells); the assay field says which cells; also called huNectin4; PVRL4
T2 sequence (looked up): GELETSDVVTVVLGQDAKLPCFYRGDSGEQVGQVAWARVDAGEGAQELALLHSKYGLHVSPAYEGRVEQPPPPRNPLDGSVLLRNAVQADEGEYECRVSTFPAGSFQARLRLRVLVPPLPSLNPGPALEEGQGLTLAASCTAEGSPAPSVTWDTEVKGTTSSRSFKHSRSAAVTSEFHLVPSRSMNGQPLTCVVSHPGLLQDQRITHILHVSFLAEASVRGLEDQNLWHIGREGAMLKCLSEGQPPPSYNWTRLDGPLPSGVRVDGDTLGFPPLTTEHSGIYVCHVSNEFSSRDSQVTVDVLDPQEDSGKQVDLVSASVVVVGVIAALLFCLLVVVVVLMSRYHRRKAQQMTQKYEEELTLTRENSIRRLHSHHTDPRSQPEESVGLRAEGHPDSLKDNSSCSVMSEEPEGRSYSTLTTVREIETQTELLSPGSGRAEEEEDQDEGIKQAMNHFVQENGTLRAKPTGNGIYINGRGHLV

[3] = target: T3, human Nectin-2(C-6His), Novoprotein Cat# C440 (human, UniProt Q92692 32-360, limits assumed); assay: ELISA, plate coated with 1 µg/ml human Nectin-2(C-6His), absorbance at 450 nm. The text names only a goat anti-rabbit HRP secondary antibody
T3 sequence: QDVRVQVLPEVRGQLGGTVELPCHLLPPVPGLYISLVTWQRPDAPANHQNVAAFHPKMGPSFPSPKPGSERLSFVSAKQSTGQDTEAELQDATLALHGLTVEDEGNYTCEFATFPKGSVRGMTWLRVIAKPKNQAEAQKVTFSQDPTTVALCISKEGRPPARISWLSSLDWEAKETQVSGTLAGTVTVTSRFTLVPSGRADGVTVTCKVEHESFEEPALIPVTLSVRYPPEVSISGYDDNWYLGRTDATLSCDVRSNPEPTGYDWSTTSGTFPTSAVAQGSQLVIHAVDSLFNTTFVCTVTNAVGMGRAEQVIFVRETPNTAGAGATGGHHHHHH
Protocol: (§1) Plates were coated with 1 µg/ml of the antigens and incubated at 4° C. overnight; next, antibodies serially diluted were added into the plates. Finally, the HRP-labeled secondary antibody was added, and absorbance at 450 nm was detected.

[4] = target: T4, human Nectin-4(C-6His), Novoprotein Cat# CJ19 (human, UniProt Q96NY8 32-349); assay: ELISA, plate coated with 1 µg/ml human Nectin-4(C-6His), HRP-labelled secondary antibody, absorbance at 450 nm
T4 construct: Bought protein; also called recombinant human Nectin4 protein; antigen Nectin-4
T4 sequence: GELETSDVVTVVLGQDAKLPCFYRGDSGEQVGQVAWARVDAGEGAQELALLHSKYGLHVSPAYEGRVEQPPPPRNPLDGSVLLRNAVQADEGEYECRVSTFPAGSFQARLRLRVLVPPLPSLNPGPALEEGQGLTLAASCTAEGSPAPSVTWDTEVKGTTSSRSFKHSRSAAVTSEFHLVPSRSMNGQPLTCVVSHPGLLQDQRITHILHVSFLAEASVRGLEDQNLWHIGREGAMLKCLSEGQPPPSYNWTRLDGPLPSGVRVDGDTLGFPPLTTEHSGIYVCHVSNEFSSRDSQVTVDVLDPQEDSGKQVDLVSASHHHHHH
Protocol: as §1

[5] = target: T5, human Nectin-1(C-6His), Novoprotein Cat# C492 (human, UniProt Q15223 31-334, limits assumed); assay: ELISA, plate coated with 1 µg/ml human Nectin-1(C-6His), absorbance at 450 nm. The text names only a goat anti-rabbit HRP secondary antibody
T5 sequence: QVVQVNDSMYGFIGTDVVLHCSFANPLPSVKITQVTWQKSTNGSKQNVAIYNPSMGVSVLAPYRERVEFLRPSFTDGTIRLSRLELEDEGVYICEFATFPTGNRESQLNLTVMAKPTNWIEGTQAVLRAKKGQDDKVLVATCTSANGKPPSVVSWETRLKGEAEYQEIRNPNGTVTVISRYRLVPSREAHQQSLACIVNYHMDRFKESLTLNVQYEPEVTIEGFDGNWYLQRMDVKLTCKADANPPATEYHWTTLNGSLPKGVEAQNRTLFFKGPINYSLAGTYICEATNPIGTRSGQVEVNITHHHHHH
Protocol: as §1

- Kd [1]: 4.94 nM
- EC50 [2]: 0.513 µg/mL
- binding result [3]: no binding (tested: 10 µg/ml)
- EC50 (read off the curve) [4]: ~0.1 µg/mL
B1: Enfortumab (antibody, human IgG1, kappa, V domains shown)
VH: EVQLVESGGGLVQPGGSLRLSCAASGFTFSSYNMNWVRQAPGKGLEWVSYISSSSSTIYYADSVKGRFTISRDNAKNSLSLQMNSLRDEDTAVYYCARAYYYGMDVWGQGTTVTVSS
VL: DIQMTQSPSSVSASVGDRVTITCRASQGISGWLAWYQQKPGKAPKFLIYAASTLQSGVPSRFSGSGSGTDFTLTISSLQPEDFATYYCQQANSFPPTFGGGTKVEIKR
notes: also called control antibody Enfortumab
- binding result [5]: no binding (tested: about 2.5 µg/ml (last point))

- Kd [1]: 1.14 nM
- EC50 [2]: 0.801 µg/mL
- binding result [3]: no binding (tested: 10 µg/ml)
- EC50 (read off the curve) [4]: ~0.09 µg/mL
B2: 42D20 hz10 (antibody, V domains shown)
VH: QVQLQESGPGLVKPSETLSLTCTVSGFSLIDYGVSWIRQPPGKGLEWIGVIWGDGKIYYNSVLKSRVTISKDNSKSQVSLKLSSVTAADTAVYYCAKQGGLLFYAMDYWGQGTLVTVSS
VL: DIVMTQSPDSLAVSLGERATINCKSSQSLLNSYSQKNYLAWYQQKPGQPPKLLIYFASTRESGVPDRFSGSGSGTDFTLTISSLQAEDVAVYYCQQHYNTPFTFGAGTKLELKR
notes: Humanized
- binding result [5]: no binding (tested: about 2.5 µg/ml (last point))
